As usually defined, the Kd is the equilibrium constant for the complex coming apart.

In test [1] the target is human Type 1 IGF receptor (human) (UniProt P08069). Briefly: competitive displacement of 125I-Tyr31 IGF-I from IGF-1R.
For test [2] the target is unchanged. The experiment in a line: competitive displacement of 125I-Tyr31 IGF-I from IGF-1R (different receptor preparation from Tables 1A-1C).

“α-D-mannopyranoside-O^β-Thr^B30-[His^A4, His^A8, Gly^A21]-insulin (ligand)”: in test [1], the Kd turned out to be 41.8 nM.
Take “[Lys^B28, Pro^B29]-insulin (ligand; other documents disagree on this pair)”: the Kd was 8.39 nM in test [1] and 3.86 nM in test [2].

(Values after EP2877200B1.)
